B1: 8-G17-A (antibody, V domains shown)
VH: EVQLVESGGGLVKPGGSLKLSCEASGITFSNYVMSWVRQTPEKRLEWVATISDGGSYTYYPDNLKGRFTISRDNAKNNLYLQMSHLKSEDTAMYYCVRDRYDYDGRVYAMDYWGQGTSVTVSS
VL: DVVMTQTPLSLPVSLGDQASISCRSSQSLVHSNGNTYLHWYLQKPGQSPKLLIYKVSNRFSGVPDRFSGSGSGTDFTLKITRVEAEDLGVYFCSQSTHVPWTFGGGTKLEIKR
notes: PentaMice hybridoma clone, made recombinantly in CHO cells
B2: R3-P3-E09 (antibody, human IgG1, kappa, V domains shown)
VH: EVQLVETGGGVVQPGRSLTLSCGASEFTFSNYAMHWVRQAPGKGLEWVAVISYDGTKKYYGDSVKGRFTISRENIKNTLYLQMNSLRSEDTAVYYCARDVGKGVTATGTFDIWGQGTMVTVSS
VL: AIRMTQSPSSLSASVGDRVTITCRASQGIGSYLAWFQQKPGEAPKSLIIDATRLKSGVPSRFSGSGSGTEFALTISSLRPEDFATYYCQQYNVSPLTFGGGTKVEIKR
notes: human IgG1 kappa from the phage campaign

Key:
human Sdc2 [1] = target: T1, human Sdc2 (human, UniProt P34741 19-144, limits assumed); assay: Octet tandem binning; saturating Ab f6 19844-R3-P3-E09
T1 construct: Antigen of the Octet tandem binning, loaded on biosensors at 100 nM; also called huSdc2; hSdc2
T1 sequence (P34741 19-144 limits assumed): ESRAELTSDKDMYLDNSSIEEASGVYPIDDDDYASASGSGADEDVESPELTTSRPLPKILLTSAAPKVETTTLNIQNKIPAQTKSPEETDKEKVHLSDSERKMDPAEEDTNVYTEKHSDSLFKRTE
Experimental: (§1) These studies were performed in a tandem binning assay format with human Sdc2, used as the antigen (concentration of 100 nM). Antigen loaded biosensors were dipped in a saturating solution of antibody (25 μg/ml) for 240 seconds followed by a competing antibody at 5 μg/ml for 180 seconds. […] Since saturation is not possible to achieve saturation with these clones, they are removed in as ligands, but retained in the analyte orientation in the analysis. A table summarizing the results of epitope binning of the 18 antibodies against huSdc2 is illustrated in FIG. 30. Data is normalized, where the raw binding signal from Competing Ab for a given Saturating Ab is divided by binding in the absence a […] (“buffer”). The threshold determining the matrix color is adjustable and dependent upon Ag-Ab binding. […] Table rows are based on similar looking binding profiles. Note that the coloration/cutoff is subjective, yellow color added to represent injections with ambiguous or very weak sandwiching signals. FIG. 31 illustrates a clustergram of the epitope binning studies, which was generated from the normalized binning data by importation into the statistical computing program R (The R Project for Statistical Computing: at r-project.org) and generation of a clustergram with the pvclust package.

[2] = target: human Sdc2 on Human Umbilical Vein Endothelial Cells (HUVEC) (human, UniProt P34741 19-201); assay: cell-based or functional assay
Chain of human Sdc2 on Human Umbilical Vein Endothelial Cells (HUVEC) (P34741 19-201 limits assumed): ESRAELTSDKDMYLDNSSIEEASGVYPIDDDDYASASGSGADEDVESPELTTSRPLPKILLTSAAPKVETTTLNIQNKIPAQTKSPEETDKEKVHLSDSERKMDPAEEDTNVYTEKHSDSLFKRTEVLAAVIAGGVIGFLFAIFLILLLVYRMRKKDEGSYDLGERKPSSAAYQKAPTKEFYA

human Sdc2 [3] = target: T1, human Sdc2; assay: Octet tandem binning; saturating Ab m8 19844-R4M-P1-B01 (marked non-binding ligand)
Experimental: as §1

human Sdc2 [4] = target: T1, human Sdc2; assay: Octet tandem binning; Buffer in place of a saturating Ab
Experimental: as §1

human Sdc2 [5] = target: T1, human Sdc2; assay: Octet tandem binning; saturating Ab f3 19838-6N03-A
Experimental: as §1

human Sdc2 [6] = target: T1, human Sdc2; assay: Octet tandem binning; saturating Ab f5 19844-R4M-P3-E06
Experimental: as §1

human Sdc2 [7] = target: T1, human Sdc2; assay: Kd (human Sdc2), summary table of the mAbs
human Sdc2 [8] = target: T1, human Sdc2; assay: Octet tandem binning; saturating Ab f10 19838-10-I12-A
Experimental: as §1

human Sdc2 [9] = target: T1, human Sdc2; assay: Octet BLI, HIS1K sensor loaded with huSdc2, antibody as sample; Full R2 0.9968
human Sdc2 [10] = target: T1, human Sdc2; assay: Octet tandem binning; saturating Ab f11 19838-20-H19-A
Experimental: as §1

human Sdc2 [11] = target: T1, human Sdc2; assay: Octet tandem binning; saturating Ab m1 19838-20H19-AB
Experimental: as §1

human Sdc2 [12] = target: T1, human Sdc2; assay: Octet tandem binning; saturating Ab m6 19838-20H19-AA (marked non-binding ligand)
Experimental: as §1

human Sdc2 [13] = target: T1, human Sdc2; assay: Octet tandem binning; saturating Ab f8 19844-R4M-P2-C02
Experimental: as §1

pig Sdc2 [14] = target: T2, pig Sdc2 (pig, UniProt F1S0L5 19-145); assay: Octet BLI, HIS1K sensor loaded with pigSdc2, antibody as sample; Full R2 0.997
T2 construct: also called pSdc2

human Sdc2 [15] = target: T1, human Sdc2; assay: Octet tandem binning; saturating Ab m5 19844-R4M-P3-A12 (row boxed, self-self >0.09)
Experimental: as §1

pig Sdc2 [16] = target: T2, pig Sdc2; assay: Octet BLI, heading box over the sensorgram
Experimental: (§2) In order to characterize the binding affinity and in vivo/in vitro functional ability of the twelve clones generated by the previous studies and disclosed in Table 1, a series of assays were performed on each clone. These assays measured the affinity of each antibody clone for human, pig, and mouse Sdc2 using an Octet® binding assay system. Additionally, the functional ability of each clone to inhibit VEGFA-driven permeability (see Santiago, et al. (2021) J Am Heart Assoc. 10(18):e020521) was assessed in two therapeutic settings: a “prevention” study in which three concentrations of antibody (5 μg/ml, 10 μg/ml, 15 μg/ml, 20 μg/ml, and/or 40 μg/ml depending on the study) were pre-incubated for an hour before administration of 100 ng/ml of VEGFA, and a “treatment” study in which 3 hours of pre-treatment with 100 ng/ml VEGFA were followed by treatment with antibody at 20 μg/ml or 40 μg/ml. Results are shown for 8-G17 in FIG. 8 and FIG. 9, 20-H19-AB in FIG. 10 and FIG. 11 (FIG. 12 for monkey ECs), R3-P3-C11 in FIG. 13 and FIG. 14, R4M-P3-E06 in FIG. 15 and FIG. 16, R3-P3-E09 in FIG. 17 and FIG. 18, R3-P1-C02 in FIG. 19 and FIG. 20, R3-P3-A12 in FIG. 21 and FIG. 22, R4M-P3-A12 in FIG. 23 and FIG. 24, and R4M-P1-A10 in FIG. 25 and FIG. 26.

human Sdc2 [17] = target: T1, human Sdc2; assay: Octet BLI, heading box over the sensorgram
Experimental: as §2

human Sdc2 [18] = target: T1, human Sdc2; assay: Octet tandem binning; saturating Ab f4 19844-R3-P3-C11
Experimental: as §1

human Sdc2 [19] = target: T1, human Sdc2; assay: Octet tandem binning; saturating Ab m7 19844-R3-P1-E07
Experimental: as §1

human Sdc2 [20] = target: T1, human Sdc2; assay: Octet tandem binning; saturating Ab f9 19838-6-E17-A
Experimental: as §1

human Sdc2 [21] = target: T1, human Sdc2; assay: Octet tandem binning; saturating Ab f12 19838-6-N03-A
Experimental: as §1

human Sdc2 [22] = target: T1, human Sdc2; assay: Octet tandem binning; saturating Ab m3 19844-R3-P1-C02 (row boxed, self-self >0.09)
Experimental: as §1

human Sdc2 [23] = target: T1, human Sdc2; assay: Octet tandem binning; saturating Ab f7 19844-R3-P3-A12
Experimental: as §1

human Sdc2 [24] = target: T1, human Sdc2; assay: Octet tandem binning; saturating Ab m4 19844-R4M-P1-A10
Experimental: as §1

human Sdc2 [25] = target: T1, human Sdc2; assay: Octet BLI, HIS1K sensor loaded with hSdc2, antibody as sample; Full R2 0.9248
human Sdc2 [26] = target: T1, human Sdc2; assay: Octet tandem binning; saturating Ab m2 19838-8G17-A
Experimental: as §1

| Binder | % Inhibition of VEGFA-induced permeability at 24hrs (20ug/ml) [2] | raw competing-Ab binding signal (human Sdc2 [3]) | raw competing-Ab binding signal (human Sdc2 [4]) | raw competing-Ab binding signal (human Sdc2 [5]) | raw competing-Ab binding signal (human Sdc2 [6]) | Kd (human Sdc2 [7]) | raw competing-Ab binding signal (human Sdc2 [8]) | raw competing-Ab binding signal (human Sdc2 [10]) | raw competing-Ab binding signal (human Sdc2 [11]) | raw competing-Ab binding signal (human Sdc2 [12]) | raw competing-Ab binding signal (human Sdc2 [13]) | raw competing-Ab binding signal (human Sdc2 [15]) | Kd (human Sdc2 [17]) | raw competing-Ab binding signal (human Sdc2 [18]) | raw competing-Ab binding signal (human Sdc2 [19]) | raw competing-Ab binding signal (human Sdc2 [20]) | raw competing-Ab binding signal (human Sdc2 [21]) | raw competing-Ab binding signal (human Sdc2 [22]) | raw competing-Ab binding signal (human Sdc2 [23]) | raw competing-Ab binding signal (human Sdc2 [24]) | other results |
| --- | --- | --- | --- | --- | --- | --- | --- | --- | --- | --- | --- | --- | --- | --- | --- | --- | --- | --- | --- | --- | --- |
| B1 | 100% | 0.827 | 0.83 | 0.0574 | 0.954 | 0.46 nM | 0.113 | 0.241 | 0.16 | 0.891 | 0.777 | 0.858 | ~0.46 nM | 0.776 | 0.871 | 0.79 | 0.0566 | 0.784 | 0.636 | 0.805 | raw competing-Ab binding signal (human Sdc2 [1]): 0.761; Kd (human Sdc2 [9]): 0.466 nM; koff (human Sdc2 [9]): 0.000235 s⁻¹; kon (human Sdc2 [9]): 505000 M⁻¹ s⁻¹; Kd (pig Sdc2 [14]): 0.455 nM; koff (pig Sdc2 [14]): 0.000195 s⁻¹; kon (pig Sdc2 [14]): 428000 M⁻¹ s⁻¹; Kd (pig Sdc2 [16]): ~0.45 nM |
| B2 | 75% | 0.307 | 0.285 | 0.407 | 0.338 | 17.7 nM | 0.151 | 0.337 | 0.273 | 0.293 | 0.209 | 0.304 | ~17.7 nM | -0.138 | 0.348 | 0.376 | 0.518 | 0.246 | -0.135 | 0.241 | Kd (human Sdc2 [25]): 17.7 nM; koff (human Sdc2 [25]): 0.00908 s⁻¹; kon (human Sdc2 [25]): 513000 M⁻¹ s⁻¹; raw competing-Ab binding signal (human Sdc2 [26]): 0.397 |
